The assay addresses T1, MERS-CoV S-[change] protein, England1 strain (MERS-CoV, England1 strain, UniProt K9N5Q8 19-1290).
T1 sequence: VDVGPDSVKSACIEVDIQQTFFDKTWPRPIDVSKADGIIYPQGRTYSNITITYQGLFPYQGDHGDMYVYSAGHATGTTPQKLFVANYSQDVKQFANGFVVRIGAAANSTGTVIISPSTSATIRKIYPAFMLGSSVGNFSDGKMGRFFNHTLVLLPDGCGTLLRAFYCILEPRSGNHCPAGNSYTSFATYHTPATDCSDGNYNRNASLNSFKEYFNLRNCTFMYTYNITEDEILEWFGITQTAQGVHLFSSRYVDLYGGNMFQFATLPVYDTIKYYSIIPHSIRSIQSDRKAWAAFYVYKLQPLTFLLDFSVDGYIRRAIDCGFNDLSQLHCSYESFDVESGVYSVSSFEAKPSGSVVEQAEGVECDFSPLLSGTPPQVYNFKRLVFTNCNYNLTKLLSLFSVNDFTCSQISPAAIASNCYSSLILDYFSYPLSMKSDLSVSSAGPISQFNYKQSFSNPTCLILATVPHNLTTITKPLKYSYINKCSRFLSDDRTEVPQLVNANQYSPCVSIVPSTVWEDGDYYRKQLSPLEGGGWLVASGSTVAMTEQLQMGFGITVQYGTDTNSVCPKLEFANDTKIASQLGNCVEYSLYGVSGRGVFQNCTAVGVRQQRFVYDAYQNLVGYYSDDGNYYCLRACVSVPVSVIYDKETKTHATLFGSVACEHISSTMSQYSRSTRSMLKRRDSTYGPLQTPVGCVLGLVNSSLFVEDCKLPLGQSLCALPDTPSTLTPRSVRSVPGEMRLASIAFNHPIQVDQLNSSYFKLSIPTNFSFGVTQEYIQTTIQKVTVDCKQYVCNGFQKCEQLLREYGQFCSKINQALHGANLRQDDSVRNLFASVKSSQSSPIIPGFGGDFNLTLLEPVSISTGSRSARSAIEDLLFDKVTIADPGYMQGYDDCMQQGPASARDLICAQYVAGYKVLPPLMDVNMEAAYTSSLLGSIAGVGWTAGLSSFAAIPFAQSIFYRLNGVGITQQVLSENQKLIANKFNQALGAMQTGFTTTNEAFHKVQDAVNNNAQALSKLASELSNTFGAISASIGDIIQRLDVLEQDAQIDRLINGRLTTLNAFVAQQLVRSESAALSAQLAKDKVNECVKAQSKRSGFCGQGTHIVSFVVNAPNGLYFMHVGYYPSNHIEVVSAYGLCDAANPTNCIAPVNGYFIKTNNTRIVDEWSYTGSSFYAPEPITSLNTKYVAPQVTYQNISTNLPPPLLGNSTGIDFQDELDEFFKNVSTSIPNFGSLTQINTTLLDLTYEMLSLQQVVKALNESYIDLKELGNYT
Description: ELISA, hybridoma supernatant. On the technique in general: In an ELISA, binding on a coated surface is turned into a signal by an enzyme label.

The text below walks through data of US20180244756A1 (US Dept. of Health and Human Services, published 2018).

B1: G2 antibody (antibody, V domains shown)
VH: QVQLQQSGGELVKPGASVKLSCKTSGFTFSSSYISWLKQKPGQSLEWIAWIYAGTGGTEYNQKFTGKAQVTVDTSSSTAYMQFSSLTTEDSAIYYCARGGSSFAMDYWGQGTSVTVSS
VL: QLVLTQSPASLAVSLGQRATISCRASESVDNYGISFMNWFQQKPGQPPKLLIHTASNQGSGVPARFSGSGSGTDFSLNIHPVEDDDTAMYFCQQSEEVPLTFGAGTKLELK
As for B1, the “ELISA (unit not given)” value came out at 0.58.

B2: G4 antibody (antibody, V domains shown)
VH: QVQLQQSGPELVRPGVSVKISCKGSGYTFTDYAIHWVKQSHAKSLEWIGVFSTYYGNTNYNQKFKGRATMTVDKSSSTAYMELARLTSEDSAIYYCARKSYYVDYVDAMDYWGQGTSVTVSS
VL: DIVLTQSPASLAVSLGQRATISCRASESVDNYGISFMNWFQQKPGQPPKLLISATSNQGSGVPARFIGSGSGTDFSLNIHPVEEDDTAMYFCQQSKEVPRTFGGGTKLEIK
Consider B2, for which the “ELISA (unit not given)” value worked out at 2.8.
